As usually defined, the Kd is the free concentration of one partner at which half of the binding sites on the other are occupied at equilibrium, for simple one-to-one binding. Lower therefore signals tighter binding. As usually defined, the EC50 (read off the curve) is the concentration at which the effect is half-maximal. A lower EC50 (read off the curve) goes with higher potency in that assay.

Test [1] has as its target T1, PD-L2 on CHO-PD-L2 cells (human, UniProt Q9BQ51 20-273).
T1 sequence: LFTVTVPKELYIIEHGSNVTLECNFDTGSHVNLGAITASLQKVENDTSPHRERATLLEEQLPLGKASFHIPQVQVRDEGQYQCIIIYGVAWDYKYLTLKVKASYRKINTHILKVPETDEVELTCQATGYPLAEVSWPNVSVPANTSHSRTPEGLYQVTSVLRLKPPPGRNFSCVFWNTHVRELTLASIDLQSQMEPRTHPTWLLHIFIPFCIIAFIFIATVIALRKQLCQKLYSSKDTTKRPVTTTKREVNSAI
As to the kind of experiment: cell-based or functional assay.

The target of the next test is T2, Mouse PD-L2-Fc (mouse, UniProt Q9WUL5 20-219).
T2 construct: not shown: Fc part
T2 sequence (looked up): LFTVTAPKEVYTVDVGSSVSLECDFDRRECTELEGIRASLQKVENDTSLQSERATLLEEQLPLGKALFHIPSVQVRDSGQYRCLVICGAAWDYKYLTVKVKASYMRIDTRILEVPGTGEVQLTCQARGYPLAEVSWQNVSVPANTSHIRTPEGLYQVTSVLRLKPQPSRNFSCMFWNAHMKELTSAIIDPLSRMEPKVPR
Description: ForteBio Octet, IgG KD, Mouse PD-L2-Fc, avid. (In general: Biolayer interferometry detects binding as a change in optical thickness at a sensor tip.)

In test [2] the target is T1, PD-L2 on CHO-PD-L2 cells. Description: cell surface binding, panel 'Binding Assay PD-L2', MFI against Ab nM (flow cytometry on PD-L2 expressing cells). On the technique in general: In flow cytometry, cells or beads pass a laser one at a time.
For another test, the target named is T3, Cyno PD-L2-Fc (cyno, UniProt A0A2K5U5Z4 20-220).
T3 construct: not shown: Fc part
T3 sequence: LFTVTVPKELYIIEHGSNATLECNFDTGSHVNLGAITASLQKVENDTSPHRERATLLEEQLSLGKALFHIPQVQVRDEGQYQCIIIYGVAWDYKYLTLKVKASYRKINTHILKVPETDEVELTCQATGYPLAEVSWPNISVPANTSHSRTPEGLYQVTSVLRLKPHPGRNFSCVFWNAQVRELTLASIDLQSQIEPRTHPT
Description: ForteBio Octet, IgG KD, Cyno PD-L2-Fc, avid. Here is the method: (§1) ForteBio K_D measurements—ForteBio affinity measurements were performed on an Octet RED384 generally as previously described (see, e.g., Estep et al., High throughput solution-based measurement of antibody-antigen affinity and epitope binning. Mabs 5(2), 270-278 (2013)). Briefly, ForteBio affinity measurements were performed by loading IgGs on-line onto AHQ sensors. Sensors were equilibrated off-line in assay buffer for 30 min and then monitored on-line for 60 seconds for baseline establishment. Sensors with loaded IgGs were exposed to 100 nM antigen for 3 minutes, and afterwards were transferred to assay buffer for 3 min for off-rate measurement. For monovalent affinity assessment Fabs were used instead of IgGs. For this assessment the unbiotinylated Fc fusion antigen was loaded on-line onto the AHQ sensors. Sensors were equilibrated off-line in assay buffer for 30 min and then monitored on-line for 60 seconds for baseline establishment. Sensors with loaded antigen were exposed to 100 nM Fab for 3 minutes, and afterwards they were transferred to assay buffer for 3 min for off-rate measurement. All kinetics were analyzed using the 1:1 binding model.

The target of test [3] is T1, PD-L2 on CHO-PD-L2 cells. As to the kind of experiment: cell-based or functional assay. This is another data set of the same source.
The target in another test is T4, human PD-L2 protein (human, UniProt Q9BQ51 20-220, limits assumed).
T4 construct: also called analyte (PD-L2)
T4 sequence: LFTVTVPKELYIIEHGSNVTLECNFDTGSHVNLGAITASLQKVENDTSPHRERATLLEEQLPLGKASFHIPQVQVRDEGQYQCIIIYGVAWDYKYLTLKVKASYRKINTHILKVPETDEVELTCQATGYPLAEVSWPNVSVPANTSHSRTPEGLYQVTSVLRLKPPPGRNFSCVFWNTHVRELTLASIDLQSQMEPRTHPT
As to the kind of experiment: MFI against Ab nM; legend: binding to human PD-L2 protein, maximum fluorescence intensity, ForteBio Octet. As to the method: Antibody Screening and Characterization. Antibody candidates generated from the presentation methods described above were tested for the capacity to bind to PD-L2 and block its binding to PD-1. 5 µg/mL of antibody was bound to CHO-PD-L2 cells and then recombinant PD-1 (RnD Systems) labelled with Alexa 532 (ThermoFisher) was added for 1 hour. PD-1 maximum fluorescence intensity was measured. Blockade of PD-1 binding was measured by reduction in Alexa 532 fluorescence by flow cytometry. […] The binding and release of the analyte (PD-L2) are recorded by the Octet instrument in real time and then used to calculate the KD, $Kon$, and $Kdis$; results are derived from 2:1 Global Fit Modeling with reference well subtraction. […]
PD-L2 antibodies avidly bind human PD-L2. […] Antibody subclones were immobilized on Anti-Human Fc Capture (AHC) Biosensors at 100 nM (15 μg/mL), and human PD-L2 protein association and dissociation was tested in dilution series from 30-0.37 nM (FIGS. 4A-B).

The next test has as its target T5, Human PD-L2-HIS (human, UniProt Q9BQ51 20-220).
T5 construct: also called HIS-tagged protein (human PD-L2); not shown: HIS tag
T5 sequence: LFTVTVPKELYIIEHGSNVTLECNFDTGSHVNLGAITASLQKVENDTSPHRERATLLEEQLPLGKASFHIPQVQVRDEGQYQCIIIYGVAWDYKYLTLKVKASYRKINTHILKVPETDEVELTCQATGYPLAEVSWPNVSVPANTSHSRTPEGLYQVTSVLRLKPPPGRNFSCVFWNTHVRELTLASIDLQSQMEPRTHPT
Description: IgG KD, Human PD-L2-HIS, monovalent (method not named in the table: ForteBio or MSD-SET).

The target of test [4] is T1, PD-L2 on CHO-PD-L2 cells. Description: cell-based or functional assay. The source holds these as a separate data set.
For test [5], the target named is T6, Human PD-L2-Fc (human, UniProt Q9BQ51 20-220).
T6 construct: also called Fc fusion antigen; not shown: Fc part
T6 sequence: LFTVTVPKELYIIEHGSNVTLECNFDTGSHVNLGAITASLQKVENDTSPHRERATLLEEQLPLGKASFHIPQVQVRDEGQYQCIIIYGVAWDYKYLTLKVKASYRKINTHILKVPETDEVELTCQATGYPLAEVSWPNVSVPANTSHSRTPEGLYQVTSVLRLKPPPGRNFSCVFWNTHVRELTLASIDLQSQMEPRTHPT
As to the kind of experiment: ForteBio Octet, IgG KD, Human PD-L2-Fc, avid.

The target of test [6] is T6, Human PD-L2-Fc. As to the kind of experiment: ForteBio Octet, Fab KD, Human PD-L2-Fc on sensor, monovalent. Here is the method: as §1
Test [7] concerns the target T1, PD-L2 on CHO-PD-L2 cells. As to the kind of experiment: cell-based or functional assay. The source holds these as a separate data set.
In test [8] the target is T1, PD-L2 on CHO-PD-L2 cells. Description: competition assay by flow cytometry: antibody against Biotin-rhPD-1-Fc on PD-L2 expressing cells, Streptavidin-APC; axis 'Antibodies µg (logX)'.

B1: ADI-20810 (anti-PD-L2 antibody 20810), IgG (antibody, V domains shown)
VH: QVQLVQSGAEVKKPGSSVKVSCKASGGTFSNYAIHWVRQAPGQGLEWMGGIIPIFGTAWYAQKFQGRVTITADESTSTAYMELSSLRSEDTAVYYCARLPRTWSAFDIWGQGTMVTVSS
VL: EIVLTQSPATLSLSPGERATLSCRASQSVSSYLAWYQQKPGQAPRLLIYDASNRATGIPARFSGSGSGTDFTLTISSLEPEDFAVYYCQQVVTLPPTFGGGTKVEIK
notes: Tested as full-length IgG
On to B1, for which, in the test with PD-L2 on CHO-PD-L2 cells [1], the “IC50 (Promega PD-1:PD-L2 bioassay, luciferase)” value was determined as 0.41 nM. Also, the Kd stood at 0.503 nM in the test with Mouse PD-L2-Fc, 0.3 nM in the test with Cyno PD-L2-Fc, 0.0025 nM with Human PD-L2-HIS and 0.331 nM in the test with Human PD-L2-Fc [5]. In addition, the half-maximal effective concentration (EC50 (read off the curve)) was roughly 0.7 nM with PD-L2 on CHO-PD-L2 cells [2], roughly 0.4 nM in the test with PD-L2 on CHO-PD-L2 cells [3], roughly 0.7 nM with human PD-L2 protein and roughly 0.2 nM in the test with PD-L2 on CHO-PD-L2 cells [4].

B2: ADI-20810 Fab (Fab, V domains shown)
VH: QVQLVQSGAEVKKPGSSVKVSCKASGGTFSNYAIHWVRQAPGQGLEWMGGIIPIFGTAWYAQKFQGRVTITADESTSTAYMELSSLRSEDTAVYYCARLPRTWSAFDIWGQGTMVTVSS
VL: EIVLTQSPATLSLSPGERATLSCRASQSVSSYLAWYQQKPGQAPRLLIYDASNRATGIPARFSGSGSGTDFTLTISSLEPEDFAVYYCQQVVTLPPTFGGGTKVEIK
In the test with Human PD-L2-Fc [6], B2 showed a Kd of 0.267 nM.

B3: ADI-20811 (anti-PD-L2 antibody 20811), IgG (antibody, V domains shown)
VH: QVQLVQSGAEVKKPGSSVKVSCKASGGTFSSAAIHWVRQAPGQGLEWMGGIIPIFGLAQYAQKFQGRVTITADESTSTAYMELSSLRSEDTAVYYCARLPRTWSAFDIWGQGTMVTVSS
VL: EIVLTQSPATLSLSPGERATLSCRASQSVSSYLAWYQQKPGQAPRLLIYDASNRATGIPARFSGSGSGTDFTLTISSLEPEDFAVYYCQQVVTLPPTFGGGTKVEIK
notes: Tested as full-length IgG
For B3, in the test with PD-L2 on CHO-PD-L2 cells [1], the “IC50 (Promega PD-1:PD-L2 bioassay, luciferase)” value was 0.24 nM. The dissociation constant (Kd) with Mouse PD-L2-Fc was 0.259 nM; with Cyno PD-L2-Fc it was 0.231 nM; with Human PD-L2-HIS, 0.0085 nM; in the test with Human PD-L2-Fc [5], 0.248 nM. For the same molecule, the “EC50 (read off the curve)” value with human PD-L2 protein is roughly 0.3 nM; in the test with PD-L2 on CHO-PD-L2 cells [4] it was roughly 0.2 nM.

B4: ADI-20811 Fab (Fab, V domains shown)
VH: QVQLVQSGAEVKKPGSSVKVSCKASGGTFSSAAIHWVRQAPGQGLEWMGGIIPIFGLAQYAQKFQGRVTITADESTSTAYMELSSLRSEDTAVYYCARLPRTWSAFDIWGQGTMVTVSS
VL: EIVLTQSPATLSLSPGERATLSCRASQSVSSYLAWYQQKPGQAPRLLIYDASNRATGIPARFSGSGSGTDFTLTISSLEPEDFAVYYCQQVVTLPPTFGGGTKVEIK
Turning to B4, the Kd with Human PD-L2-Fc [6] came out at 0.21 nM. This lies in the sub-nanomolar range.

B5: ADI-20816 (anti-PD-L2 antibody 20816), IgG (antibody, V domains shown)
VH: QVQLVQSGAEVKKPGSSVKVSCKASGGTFSSYLIAWVRQAPGQGLEWMGGIIPHFGVANYAQKFQGRVTITADESTSTAYMELSSLRSEDTAVYYCARVPQYHGYFDLWGRGTLVTVSS
VL: DIQMTQSPSSVSASVGDRVTITCRASQGISSWLAWYQQKPGKAPKLLIYAASNLQSGVPSRFSGSGSGTDFTLTISSLQPEDFATYYCQQGNSFPTFGGGTKVEIK
notes: Tested as full-length IgG; Clone family 55-g1
On to B5, for which the “IC50 (Promega PD-1:PD-L2 bioassay, luciferase) [Cont'd]” value with PD-L2 on CHO-PD-L2 cells [7] was 0.38 nM. The Kd is 21.6 nM with Mouse PD-L2-Fc, 0.296 nM with Cyno PD-L2-Fc, 0.052 nM in the test with Human PD-L2-HIS and 0.116 nM with Human PD-L2-Fc [5]. Further, the “EC50 (read off the curve)” value with human PD-L2 protein is roughly 0.9 nM; in the test with PD-L2 on CHO-PD-L2 cells [4], roughly 0.3 nM.

B6: ADI-20816 Fab (Fab, V domains shown)
VH: QVQLVQSGAEVKKPGSSVKVSCKASGGTFSSYLIAWVRQAPGQGLEWMGGIIPHFGVANYAQKFQGRVTITADESTSTAYMELSSLRSEDTAVYYCARVPQYHGYFDLWGRGTLVTVSS
VL: DIQMTQSPSSVSASVGDRVTITCRASQGISSWLAWYQQKPGKAPKLLIYAASNLQSGVPSRFSGSGSGTDFTLTISSLQPEDFATYYCQQGNSFPTFGGGTKVEIK
On to B6, for which, in the test with Human PD-L2-Fc [6], the equilibrium dissociation constant (Kd) is 0.268 nM.

B7: anti-PD-L2 antibody 16510 (antibody, human IgG1, V domains shown)
VH: QVQLVQSGAEVKKPGSSVKVSCKASGGTFSSYAISWVRQAPGQGLEWMGGIIPIFGTANYAQKFQGRVTITADESTSTAYMELSSLRSEDTAVYYCARVQKQYTYFDLWGRGTLVTVSS
VL: DIQLTQSPSSLSASVGDRVTITCQASQDISNFLNWYQQKPGKAPKLLIYDASNLETGVPSRFSGSGSGTDFTFTISSLQPEDIATYYCQQLVGAPPTFGGGTKVEIK
On to B7, for which the “IC50 (read off the curve)” value with PD-L2 on CHO-PD-L2 cells [8] was roughly 0.006 µg.

The values above are taken from US12428489 (University of Texas, dated 2025).
